Assay results reported in patent US10005846 (LIFEARC, dated 2018).
Numbering of substitutions follows the chain as printed.

B1: hAB004 (hAB001AE) humanised AB1 antibody (antibody, V domains shown)
VH: EVQLLESGGGLVQPGGSLRLSCAASGFTFSSSAMSWVRQAPGKGLEWVSTISVGGGKTYYPDSVKGRFTISRDNSKNTLYLQMNSLRAEDTAVYYCAKLISLYWGQGTLVTVSS
VL: EIVLTQSPSSLSASVGDRVTITCKASQDINSYLTWYQQKPGKAPKLLIYRTNRLFDGVPSRFSGSGSGTDFFFTISSLQPEDFGTYYCLQYDDFPYTFGGGTKLEIK
notes: they were captured by anti-human IgG1 (Fc); also called Heavy Chain version RHA with Light Chain version RKE
B2: hBB001BB humanised BB7 antibody (antibody, V domains shown)
VH: B1 VH with F27I, T28I, S49A, V53S, G56R, K57S, I70V, N74S, L102P
VL: DIKMTQSPSSLSASVGDRVTITCKASQDINSYLTWFQQKPGKAPKTLIYLTNRLMDGVPSRFSGSGSGQEFLLTISSLQPEDFATYYCLQYVDFPYTFGQGTKVEIK
notes: BB is read as heavy chain hBB001HB (BB7_RHB) with kappa chain hBB001KB (BB7_RKB)
B3: hBB001AA humanised BB7 antibody (antibody, V domains shown)
VH: B1 VH with V53S, G56R, K57S, L102P
VL: B2 VL with K3Q, T46S, Q69T, E70D, L72F
notes: captured by anti-human IgG1 (Fc); also called hBB01AA

Assays:
[1] = target: T1, human transglutaminase type 2 (TG2) (human, UniProt P21980 1-687); assay: SPR (Biacore T200), antibody captured on anti-human IgG1 Fc chip, TG2 injected; calcium condition not marked in the row
T1 construct: Recombinant full-length human TG2 (Zedira; cat; T002 in the Biacore work); Also used here for the endogenous TG2 of HepG2 lysate and HK-2 cells; also called hTG2; rhTG2
T1 sequence: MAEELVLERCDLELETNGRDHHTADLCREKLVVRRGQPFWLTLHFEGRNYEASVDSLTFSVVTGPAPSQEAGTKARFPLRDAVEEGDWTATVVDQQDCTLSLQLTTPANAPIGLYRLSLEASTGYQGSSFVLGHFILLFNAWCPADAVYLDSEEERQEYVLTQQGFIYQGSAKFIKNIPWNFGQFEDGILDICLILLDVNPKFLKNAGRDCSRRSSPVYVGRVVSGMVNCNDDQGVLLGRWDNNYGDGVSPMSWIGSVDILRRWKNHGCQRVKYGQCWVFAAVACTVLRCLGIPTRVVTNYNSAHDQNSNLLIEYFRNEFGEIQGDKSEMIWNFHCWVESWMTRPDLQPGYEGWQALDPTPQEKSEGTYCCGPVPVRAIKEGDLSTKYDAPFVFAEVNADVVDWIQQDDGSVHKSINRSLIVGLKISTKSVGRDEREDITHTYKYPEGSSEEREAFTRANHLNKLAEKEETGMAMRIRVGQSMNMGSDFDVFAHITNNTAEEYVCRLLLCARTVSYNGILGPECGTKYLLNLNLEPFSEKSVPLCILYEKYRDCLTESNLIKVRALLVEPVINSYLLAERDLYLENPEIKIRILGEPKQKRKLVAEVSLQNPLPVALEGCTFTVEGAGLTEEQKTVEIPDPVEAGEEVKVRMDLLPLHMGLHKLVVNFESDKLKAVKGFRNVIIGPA
Method: (§1) Recombinant cynomolgus monkey TG2 was obtained from Trenzyme. Surface plasmon resonance (SPR) was measured on a Biacore T200 instrument (GE Healthcare). CM5 chips (GE Healthcare cat. no.: BR-1006-68) were coated with monoclonal mouse anti-human IgG1 (Fc) (MAH) antibody (GE Healthcare cat. no.: BR-1008-39) by amine-coupling as described in the manufacturers instructions. HBS-EP+ buffer (0.01 M HEPES, 0.15 M NaCl, 3 mM EDTA, 0.05% v/v Surfactant P20) and HBS-P+ buffer (0.01 M HEPES, 0.15 M NaCl, 0.05% Surfactant P20) were purchased from GE Healthcare as 10× stocks (cat. nos.: BR-1006-69 and BR-1006-71). Calcium Chloride solution was obtained from Sigma Aldrich (cat. no.:21115).
(§2) The method employed to determine the affinity of the anti-TG2 antibodies involved the capture of the chimeric or humanised antibodies on a MAH coated CM5 chip, followed by the injection of a series of TG2 samples in running buffer. The running buffer was 1×HBS-P+ containing 1 mM CaCl_2, or 1×HBS-EP+ for calcium-free experiments. Antibody capture was carried out for a contact time of 120 seconds at a flow rate of 10 μl/min resulting in the capture of approximately 40-80 RU. TG2 was injected over the immobilised antibody at concentrations ranging from 25 nM to 400 nM with a contact time up to 600 seconds at a flow rate of 30 μl/min. Dissociation of TG2 was typically measured for up to 5400 seconds (1.5 hours). Regeneration of the chip was then performed using 3 M MgCl_2, for a contact time of 60 seconds at a flow rate of […], followed by a 300 s stabilisation period before the next sample. For each of human and cynomolgus monkey TG2, at least 5 injections at a variety of concentrations were performed in at least two separate experiments.
(§3) Kinetic data were exported from the Biacore T200 Evaluation Software and analysed using GraphPad Prism, where the association phases and dissociation phases were analysed separately using a one phase association model and one-phase exponential decay model respectively. Association rates ($kon$) were calculated for each curve individually, and dissociation rates ($koff$) values from the long dissociation phase data collected. Where $koff$ values were calculated to be $<1\times10^-5$ s^-1, values were set at 1×10^-5 for analysis, as rates slower than this could not be estimated accurately.

[2] = target: T2, cynomolgus monkey TG2 (cynomolgus monkey, UniProt A0A2K5VXI8 1-687); assay: as above
T2 construct: Bought recombinant protein; also called cynomogulus monkey TG2; cyano TG2
T2 sequence: T1 sequence with E4D, Q157R, N177S, H413S, I421T, Y528H, V542I
Method: as §1, §2, §3

[3] = target: T1, human transglutaminase type 2 (TG2); assay: cell-based or functional assay
[4] = target: T2, cynomolgus monkey TG2; assay: ELISA on immobilised cynomolgus monkey TG2; r2 0.9766; EC50 95% confidence range 0.04047 to 0.09246 [panel B]
Method: (§4) Antibody binding to human and cynomolgus monkey TG2 was determined in an ELISA assay. Clear polystyrene "Maxisorp" 96-well plates (Nunc) were coated with 50 ng purified human or cynomogulus monkey TG2 in 50 µl 0.05 M carbonate-bicarbonate buffer pH 9.6 at 4° C. overnight. Control wells were coated with 50 µl 100 µg/ml bovine serum albumin (BSA). Plates were washed 3× with 300 µl phosphate-buffered saline pH7.4 (PBS) containing 0.1% Tween 20 (PBST) and blocked with 300 µl 3% w/v Marvel skimmed milk in PBS for 1 hour at room temperature. After 3× wash with PBST, 50 µl protein-A purified chimeric or humanised anti-TG2 antibodies or human IgG1 kappa […] control antibody or CUB7402 (Abcam) were serially diluted 4-fold from a top concentration of 50 nM in PBS, and added to the plate in duplicate. […] After 3× washes with PBST, the plates were developed with 50 µl TMB substrate (Sigma) for 5 min at room temperature before stopping the reaction with 25 µl 0.5M H2SO4 and reading absorbance at 450 nm in a microtiter plate reader (BioTek EL808). Dose response curves were analysed and EC50 values and other statistical parameters determined using a 4-parameter logistical fit of the data (GraphPad Prism).

[5] = target: T2, cynomolgus monkey TG2; assay: cell-based or functional assay
[6] = target: T1, human transglutaminase type 2 (TG2); assay: ELISA on immobilised human TG2; r2 0.9794; EC50 95% confidence range 0.01199 to 0.03342 [panel B]
Method: as §4

[7] = target: T1, human transglutaminase type 2 (TG2); assay: cell-based or functional assay; remark: listed apart in the source
[8] = target: T2, cynomolgus monkey TG2; assay: ELISA on immobilised cynomolgus monkey TG2; r2 0.9361; EC50 95% confidence range 0.04198 to 0.1296 [panel A]
Method: as §4

[9] = target: T1, human transglutaminase type 2 (TG2); assay: ELISA on immobilised human TG2; r2 0.9771; EC50 95% confidence range 0.04636 to 0.08491 [panel A]
Method: as §4

[10] = target: T1, human transglutaminase type 2 (TG2); assay: cell-based or functional assay; remark: listed apart in the source
[11] = target: T1, human transglutaminase type 2 (TG2); assay: ELISA on immobilised human TG2; r2 0.9792; EC50 95% confidence range ND [panel A]
Method: as §4

[12] = target: T2, cynomolgus monkey TG2; assay: ELISA on immobilised cynomolgus monkey TG2; r2 0.9329; EC50 95% confidence range 0.03522 to 0.08934 [panel A]
Method: as §4

Binder	Kd [1] [nM]	koff [1] [s⁻¹]	kon [1] [M⁻¹ s⁻¹]	Kd [2] [nM]	koff [2] [s⁻¹]	kon [2] [M⁻¹ s⁻¹]	IC50 of enzymatic inhibition, dansylated lysine incorporation into N,N-dimethylated casein [continued), panel D] [3] [nM]	EC50 [4] [nM]	IC50 of enzymatic inhibition, dansylated lysine incorporation into N,N-dimethylated casein [panel B] [5] [nM]	EC50 [6] [nM]	IC50, extracellular TG activity of HK-2 cells, biotin cadaverine incorporation into fibronectin [7] [nM]	EC50 [8] [nM]	EC50 [9] [nM]	IC50 of enzymatic inhibition, dansylated lysine incorporation into N,N-dimethylated casein [panel B] [10] [nM]	EC50 [11] [nM]	EC50 [12] [nM]	IC50 of enzymatic inhibition, dansylated lysine incorporation into N,N-dimethylated casein [panel A] [10] [nM]	IC50 of enzymatic inhibition, dansylated lysine incorporation into N,N-dimethylated casein [panel A] [5] [nM]
B1	0.12	2.4e-05	200000	0.11	1.8e-05	160000	3.85	0.0612	7.85	0.02								
B2	< 0.04	< 1e-05	240000	0.14	3.7e-05	270000					4.9	0.0738	0.0627	0.985				
B3			270000	< 0.03	< 1e-05	300000					19.8				~0.0474	0.0561	5.99	8.51
